# Data reported in publication PMC10567711, “Structure-guided inhibition of the cancer DNA-mutating enzyme APOBEC3A”.
# B1: ATTC-hairpin (structured_DNA)
# DNA: CCCATCATTCGATGGG
# B2: CTTC-hairpin (structured_DNA)
# DNA: GCCACCTTCGTGGG
# Columns and labels:
# A3A-E72A [1] = biological target: T1, A3A-E72A (human, UniProt P31941 1-199, E72A); experiment: X-ray crystallography; 1.91 A; Cl-; ITC: 50 mM Na+/K+ phosphate pH 6.0, 50 mM NaCl, 50 mM choline acetate, 2.5 mM TCEP, 200 uM EDTA, 30 mg/mL BSA, 25 C; NMR inhibition: 50 mM Na+/K+ phosphate pH 7.4, 100 mM NaCl, 1 mM TCEP, 100 uM DSS, 10% D2O, 20 C, 140 nM A3A; details: protein: recombinant; hairpin, potential 6 bp stem, 4-nt loop ATTC
# T1 sequence (P31941 whole entry E72A): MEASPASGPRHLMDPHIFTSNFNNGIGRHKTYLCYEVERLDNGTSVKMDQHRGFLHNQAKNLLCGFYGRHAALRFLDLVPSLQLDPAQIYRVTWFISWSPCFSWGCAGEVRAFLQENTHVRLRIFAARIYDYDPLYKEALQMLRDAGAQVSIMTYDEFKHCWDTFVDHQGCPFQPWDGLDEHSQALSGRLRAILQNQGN
# A3A-E72A [2] = biological target: T1, A3A-E72A; experiment: X-ray crystallography; Zn2+; 3.15 A; one copy threaded with GACC loop; ITC: 50 mM Na+/K+ phosphate pH 6.0, 50 mM NaCl, 50 mM choline acetate, 2.5 mM TCEP, 200 uM EDTA, 30 mg/mL BSA, 25 C; NMR inhibition: 50 mM Na+/K+ phosphate pH 7.4, 100 mM NaCl, 1 mM TCEP, 100 uM DSS, 10% D2O, 20 C, 140 nM A3A; details: protein: recombinant; hairpin, 4 bp stem incl. one AT pair, 4-nt loop CTTC
Binder,binding result (A3A-E72A [1]),binding result (A3A-E72A [2])
B1,binds,
B2,,binds
